B1: Transcription elongation factor A N-terminal and central domain-containing protein, residues 30 to 77; numbered along this chain, Q8N8B7 (parent)
chain: LTELETIYVTKEHLQETDVVRAVYRVLKNCPSVALKKKAKCLLSKWKA

± gives the uncertainty stated by the source.

The data set covers variants of B1. Nature of the data set: abundance fitness (aPCA) (normalised: wild type 0, dead -1); higher = more abundant; growth selection in yeast, the domain comes from the species named. To be noted: Homo sapiens.
Consider LTELETIYVTYEHLQETDVVRAVYRVLKNCPSVALKKKAKCLLSKWKA [K11Y], for which the abundance fitness was -0.599 ± 0.15.

In the case of LTELETIYVTLEHLQETDVVRAVYRVLKNCPSVALKKKAKCLLSKWKA [K11L], the abundance fitness was -0.014 ± 0.079.

With LTELETIYVTTEHLQETDVVRAVYRVLKNCPSVALKKKAKCLLSKWKA [K11T], the abundance fitness is -0.555 ± 0.17.

For the variant LTELETIYVTNEHLQETDVVRAVYRVLKNCPSVALKKKAKCLLSKWKA [K11N], the abundance fitness is -0.627 ± 0.24.

LTELETIYVTREHLQETDVVRAVYRVLKNCPSVALKKKAKCLLSKWKA [K11R]: the abundance fitness was -0.348 ± 0.075.

For the variant LTELETIYVTQEHLQETDVVRAVYRVLKNCPSVALKKKAKCLLSKWKA [K11Q], the abundance fitness was -0.184 ± 0.13.

As for LTELETIYVTSEHLQETDVVRAVYRVLKNCPSVALKKKAKCLLSKWKA [K11S], the abundance fitness was -0.016 ± 0.086.

On to LTELETIYVTKEELQETDVVRAVYRVLKNCPSVALKKKAKCLLSKWKA [H13E], for which the abundance fitness came out at 0.262 ± 0.12.

Consider LTELETIYVTKEQLQETDVVRAVYRVLKNCPSVALKKKAKCLLSKWKA [H13Q], for which the abundance fitness was -0.078 ± 0.086.

For LTELETIYVTKEYLQETDVVRAVYRVLKNCPSVALKKKAKCLLSKWKA [H13Y], the abundance fitness was -0.479 ± 0.073.

Turning to LTELETIYVTKEVLQETDVVRAVYRVLKNCPSVALKKKAKCLLSKWKA [H13V], the abundance fitness was -0.698 ± 0.094.

For the variant LTELETIYVTKELLQETDVVRAVYRVLKNCPSVALKKKAKCLLSKWKA [H13L], the abundance fitness is -0.842 ± 0.078.

For the variant LTELETIYVTKEMLQETDVVRAVYRVLKNCPSVALKKKAKCLLSKWKA [H13M], the abundance fitness is -0.133 ± 0.084.

With LTELETIYVTKESLQETDVVRAVYRVLKNCPSVALKKKAKCLLSKWKA [H13S], the abundance fitness amounted to 0.02 ± 0.063.

In the case of LTELETIYVTKEGLQETDVVRAVYRVLKNCPSVALKKKAKCLLSKWKA [H13G], the abundance fitness was -0.232 ± 0.072.

Take LTELETIYVTKENLQETDVVRAVYRVLKNCPSVALKKKAKCLLSKWKA [H13N]: the abundance fitness is 0.07 ± 0.078.

For LTELETIYVTKEKLQETDVVRAVYRVLKNCPSVALKKKAKCLLSKWKA [H13K], the abundance fitness is 0.106 ± 0.083.

Turning to LTELETIYVTKEFLQETDVVRAVYRVLKNCPSVALKKKAKCLLSKWKA [H13F], the abundance fitness was -0.428 ± 0.091.

Regarding LTELETIYVTKEILQETDVVRAVYRVLKNCPSVALKKKAKCLLSKWKA [H13I], the abundance fitness was -0.668 ± 0.099.

As for LTELETIYVTKETLQETDVVRAVYRVLKNCPSVALKKKAKCLLSKWKA [H13T], the abundance fitness turned out to be 0 ± 0.071.

Take LTELETIYVTKERLQETDVVRAVYRVLKNCPSVALKKKAKCLLSKWKA [H13R]: the abundance fitness is -0.126 ± 0.066.

LTELETIYVTKECLQETDVVRAVYRVLKNCPSVALKKKAKCLLSKWKA [H13C]: the abundance fitness is -0.224 ± 0.079.

LTELETIYVTKTHLQETDVVRAVYRVLKNCPSVALKKKAKCLLSKWKA [E12T]: the abundance fitness was -0.068 ± 0.1.

In the case of LTELETIYVTKAHLQETDVVRAVYRVLKNCPSVALKKKAKCLLSKWKA [E12A], the abundance fitness was -0.492 ± 0.099.

As for LTELETIYVTKMHLQETDVVRAVYRVLKNCPSVALKKKAKCLLSKWKA [E12M], the abundance fitness is -0.538 ± 0.12.

On to LTELETIYVTKRHLQETDVVRAVYRVLKNCPSVALKKKAKCLLSKWKA [E12R], for which the abundance fitness is -0.24 ± 0.079.

In the case of LTELETIYVTKSHLQETDVVRAVYRVLKNCPSVALKKKAKCLLSKWKA [E12S], the abundance fitness is -0.168 ± 0.091.

As for LTELETIYVTKFHLQETDVVRAVYRVLKNCPSVALKKKAKCLLSKWKA [E12F], the abundance fitness is -0.742 ± 0.16.

As to LTELETIYVTKDHLQETDVVRAVYRVLKNCPSVALKKKAKCLLSKWKA [E12D], the abundance fitness is -0.184 ± 0.19.

In the case of LTELETIYVTKLHLQETDVVRAVYRVLKNCPSVALKKKAKCLLSKWKA [E12L], the abundance fitness is -0.792 ± 0.096.

Turning to LTELETIYVTKPHLQETDVVRAVYRVLKNCPSVALKKKAKCLLSKWKA [E12P], the abundance fitness was -0.25 ± 0.17.

On to LTELETIYVTKKHLQETDVVRAVYRVLKNCPSVALKKKAKCLLSKWKA [E12K], for which the abundance fitness came out at 0.138 ± 0.14.

In the case of LTELETIYVTKIHLQETDVVRAVYRVLKNCPSVALKKKAKCLLSKWKA [E12I], the abundance fitness was -0.707 ± 0.15.

As for LTELETIYVTKCHLQETDVVRAVYRVLKNCPSVALKKKAKCLLSKWKA [E12C], the abundance fitness was -0.79 ± 0.17.

Regarding LTELETIYVTKGHLQETDVVRAVYRVLKNCPSVALKKKAKCLLSKWKA [E12G], the abundance fitness was -0.598 ± 0.086.

LTELETIYVTKNHLQETDVVRAVYRVLKNCPSVALKKKAKCLLSKWKA [E12N]: the abundance fitness was -0.34 ± 0.17.

As for LTELETIYVTKWHLQETDVVRAVYRVLKNCPSVALKKKAKCLLSKWKA [E12W], the abundance fitness was -0.71 ± 0.1.

As for LTELETIYVTKQHLQETDVVRAVYRVLKNCPSVALKKKAKCLLSKWKA [E12Q], the abundance fitness was -0.278 ± 0.13.

On to LTELETIYVTKHHLQETDVVRAVYRVLKNCPSVALKKKAKCLLSKWKA [E12H], for which the abundance fitness is -0.606 ± 0.17.

With LTELETIYVTKEHLQEADVVRAVYRVLKNCPSVALKKKAKCLLSKWKA [T17A], the abundance fitness was -0.43 ± 0.12.

Consider LTELETIYVTKEHLQEPDVVRAVYRVLKNCPSVALKKKAKCLLSKWKA [T17P], for which the abundance fitness is 0.057 ± 0.15.

In the case of LTELETIYVTKEHLQECDVVRAVYRVLKNCPSVALKKKAKCLLSKWKA [T17C], the abundance fitness was -0.103 ± 0.11.

In the case of LTELETIYVTKEHLQEEDVVRAVYRVLKNCPSVALKKKAKCLLSKWKA [T17E], the abundance fitness is -0.315 ± 0.13.

Regarding LTELETIYVTKEHLQEKDVVRAVYRVLKNCPSVALKKKAKCLLSKWKA [T17K], the abundance fitness is -0.14 ± 0.14.

In the case of LTELETIYVTKEHLQERDVVRAVYRVLKNCPSVALKKKAKCLLSKWKA [T17R], the abundance fitness was -0.099 ± 0.072.

Turning to LTELETIYVTKEHLQEQDVVRAVYRVLKNCPSVALKKKAKCLLSKWKA [T17Q], the abundance fitness was -0.649 ± 0.18.

As to LTELETIYVTKEHLQEFDVVRAVYRVLKNCPSVALKKKAKCLLSKWKA [T17F], the abundance fitness is -0.852 ± 0.24.

As for LTELETIYVTKEHLQENDVVRAVYRVLKNCPSVALKKKAKCLLSKWKA [T17N], the abundance fitness was 0.149 ± 0.13.

Turning to LTELETIYVTKEHLQEMDVVRAVYRVLKNCPSVALKKKAKCLLSKWKA [T17M], the abundance fitness is 0.192 ± 0.15.

As to LTELETIYVTKEHLQEIDVVRAVYRVLKNCPSVALKKKAKCLLSKWKA [T17I], the abundance fitness is -0.654 ± 0.15.

Take LTELETIYVTKEHLQEHDVVRAVYRVLKNCPSVALKKKAKCLLSKWKA [T17H]: the abundance fitness is -0.37 ± 0.32.

As to LTELETIYVTKEHLQEDDVVRAVYRVLKNCPSVALKKKAKCLLSKWKA [T17D], the abundance fitness is -0.368 ± 0.17.

For LTELETIYVTKEHLQEGDVVRAVYRVLKNCPSVALKKKAKCLLSKWKA [T17G], the abundance fitness is -0.092 ± 0.072.

As to LTELETIYVTKEHLQELDVVRAVYRVLKNCPSVALKKKAKCLLSKWKA [T17L], the abundance fitness is -0.892 ± 0.14.

The values are drawn from the Human Domainome abundance scans (Beltran et al. 2025).
